Earlier results as cited in article PMC8249329.

Target: ACE2 (Homo sapiens) (UniProt Q9BYF1)
Sequence (Q9BYF1 18-740): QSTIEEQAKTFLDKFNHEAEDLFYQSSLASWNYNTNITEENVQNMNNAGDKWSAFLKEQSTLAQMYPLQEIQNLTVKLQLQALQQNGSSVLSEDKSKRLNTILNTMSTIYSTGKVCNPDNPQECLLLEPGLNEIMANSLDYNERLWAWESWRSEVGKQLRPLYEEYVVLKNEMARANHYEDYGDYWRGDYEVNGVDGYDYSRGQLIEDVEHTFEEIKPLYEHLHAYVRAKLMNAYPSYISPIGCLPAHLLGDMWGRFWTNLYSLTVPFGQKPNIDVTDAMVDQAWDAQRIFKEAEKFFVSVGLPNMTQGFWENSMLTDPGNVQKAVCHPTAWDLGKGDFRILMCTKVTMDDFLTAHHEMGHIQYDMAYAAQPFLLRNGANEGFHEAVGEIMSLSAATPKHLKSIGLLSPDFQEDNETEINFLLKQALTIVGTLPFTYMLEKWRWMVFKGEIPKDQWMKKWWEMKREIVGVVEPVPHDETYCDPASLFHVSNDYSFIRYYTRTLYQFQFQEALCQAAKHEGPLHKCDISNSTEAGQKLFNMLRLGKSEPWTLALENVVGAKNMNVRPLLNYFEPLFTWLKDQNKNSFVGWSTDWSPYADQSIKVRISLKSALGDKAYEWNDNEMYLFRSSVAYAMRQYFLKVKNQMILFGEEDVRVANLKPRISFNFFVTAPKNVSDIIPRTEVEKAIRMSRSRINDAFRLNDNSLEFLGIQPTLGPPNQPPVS

Sequence of HCoV-NL63 spike RBD (Q6Q1S2 481-616): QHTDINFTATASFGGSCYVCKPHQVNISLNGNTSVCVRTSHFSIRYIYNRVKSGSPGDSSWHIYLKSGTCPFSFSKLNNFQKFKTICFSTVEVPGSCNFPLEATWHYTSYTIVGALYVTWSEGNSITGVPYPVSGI

For “HCoV-NL63 spike RBD (from UniProt Q6Q1S2)”, the Kd is listed as 35 nM.
